The target of this assay is glycophorin A from human erythrocytes (human) (UniProt P02724).

For one substance, Glycoprotease Specific Activity (nmol/mg/h), cleavage of [125I]-glycophorin A results are on record in US5543312.

Pasteurella haemolytica A1 glycoprotease (enzyme from culture supernatant), sequence (P36175 whole entry): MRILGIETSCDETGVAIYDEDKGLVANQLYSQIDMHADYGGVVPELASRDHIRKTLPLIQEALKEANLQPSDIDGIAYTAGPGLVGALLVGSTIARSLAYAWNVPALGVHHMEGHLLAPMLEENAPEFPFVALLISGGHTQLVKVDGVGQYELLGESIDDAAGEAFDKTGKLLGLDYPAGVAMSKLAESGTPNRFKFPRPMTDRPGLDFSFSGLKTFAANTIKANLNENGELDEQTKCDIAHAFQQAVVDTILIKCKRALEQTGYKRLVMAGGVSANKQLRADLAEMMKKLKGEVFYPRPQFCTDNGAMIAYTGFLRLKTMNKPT

Substance “Pasteurella haemolytica A1 glycoprotease (enzyme from culture supernatant)” returned a Glycoprotease Specific Activity (nmol/mg/h), cleavage of [125I]-glycophorin A of 94 nmol/mg/h.
